Source: patent US20190040130A1 (Alector, published 2019)

T1: human TREM2 expressed on cells (human, UniProt Q9NZC2 19-230)
T1 construct: also called huT2 BW; cell expressed TREM2
T1 sequence: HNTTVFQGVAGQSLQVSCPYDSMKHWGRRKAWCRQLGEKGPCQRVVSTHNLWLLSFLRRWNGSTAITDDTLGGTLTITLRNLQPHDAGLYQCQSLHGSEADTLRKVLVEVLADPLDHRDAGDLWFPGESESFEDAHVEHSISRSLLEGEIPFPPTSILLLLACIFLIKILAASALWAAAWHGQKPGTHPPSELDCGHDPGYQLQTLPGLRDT


Biological target: T1, human TREM2 expressed on cells
Assay: FACS, BW cells
Description: To examine cell binding of anti-TREM2 antibodies, recombinant, human TREM2-expressing BW5147. G.1.4 cells (ATCC® TIB48™) were established by stably expressing either mouse TREM2 or human TREM2 together with Dap12 using viral infection. Cells were harvested by scraping, washed in PBS, counted and plated on 96-well U bottom plates at 1×10⁵ cells/well. The plates were spun at 1,400 rpm for 3 minutes and primary anti-TREM2 or control antibodies were added in FACS buffer (PBS+2% FBS) and incubated on ice for one hour. Cells were subsequently centrifuged as before and washed thrice with FACS buffer. Cells were then incubated with anti-human PE conjugated secondary antibody (BD Biosciences) in FACS buffer for 30 minutes on ice. Cells were again washed thrice with FACS buffer and analyzed on a BD FACS Canto. Binding was measured as mean fluorescence intensity in the […].

Row | Cell binding (FOB) [fold over background] | Binder
1 | 83 | AL2p-h77 (antibody, IgG1, V domains shown, IgG1; Fab in monovalent BLI) VH: QVQLVQSGAEVKKPGASVKVSCKASGYAFSSSWMNWVRQAPGQRLEWIGRIYPGDGDTNYAQKFQGRVTITADTSASTAYMELSSLRSEDTAVYYCARLLRNQPGESYAMDYWGQGTLVTVSS VL: DVVMTQSPDSLAVSLGERATINCRSSQSLVHSNGYTYLHWYQQKPGQSPKLLIYKVSNRFSGVPDRFSGSGSGTDFTLTISSLQAEDVAVYYCSQSTRVPYTFGGGTKVEIK
2 | 80 | AL2p-h44 (antibody, IgG1, V domains shown, IgG1; Fab in monovalent BLI) VH: QVQLVQSGAEVKKPGASLKVSCKASGYAFSSSWMNWVRQAPGQRLEWIGRIYPGDGDTNYAQKFQGRATLTADTSASTAYMELSSLRSEDTAVYFCARLLRNQPGESYAMDYWGQGTLVTVSS VL: DVVMTQTPLSLSVTPGQPASISCRSSQSLVHSNGYTYLHWYLQKPGQSPQLLIYKVSNRFSGVPDRFSGSGSGTDFTLKISRVEAEDVGVYYCSQSTRVPYTFGQGTKLEIK
3 | 69 | AL2p-h35 (antibody, IgG1, V domains shown, IgG1; Fab in monovalent BLI) VH: QVQLVQSGAEVKKPGSSVKVSCKASGYAFSSSWMNWVRQAPGQGLEWMGRIYPGDGDTNYAQKFQGRATITADTSTSTAYMELSSLRSEDTAVYYCARLLRNQPGESYAMDYWGQGTLVTVSS VL: DVVMTQTPLSLSVTPGQPASISCRSSQSLVHSNGYTYLHWYLQKPGQSPQLLIYKVSNRFSGVPDRFSGSGSGTDFTLKISRVEAEDLGVYFCSQSTRVPYTFGQGTKLEIK
4 | 74 | AL2p-h33 (antibody, IgG1, V domains shown, IgG1; Fab in monovalent BLI) VH: QVQLVQSGAEVKKPGSSVKVSCKASGYAFSSSWMNWVRQAPGQGLEWIGRIYPGDGDTNYAQKFQGRATLTADTSTTTAYMELSSLRSEDTAVYFCARLLRNQPGESYAMDYWGQGTLVTVSS VL: DVVMTQTPLSLSVTPGQPASISCRSSQSLVHSNGYTYLHWYLQKPGQSPQLLIYKVSNRFSGVPDRFSGSGSGTDFTLKISRVEAEDLGVYFCSQSTRVPYTFGQGTKLEIK
5 | 69 | AL2p-h59 (antibody, IgG1, V domains shown, IgG1; Fab in monovalent BLI) VH: QVQLVQSGAEVKKPGASVKVSCKASGYAFSSSWMNWVRQAPGQRLEWMGRIYPGDGDTNYAQKFQGRVTITRDTSASTAYMELSSLRSEDTAVYYCARLLRNQPGESYAMDYWGQGTLVTVSS VL: DIVMTQSPLSLPVTPGEPASISCRSSQSLVHSNGYTYLHWYLQKPGQSPQLLIYKVSNRFSGVPDRFSGSGSGTDFTLKISRVEAEDVGVYYCSQSTRVPYTFGGGTKVEIK
6 | 79 | AL2p-h42 (antibody, IgG1, V domains shown, IgG1; Fab in monovalent BLI) VH: QVQLVQSGAEVKKPGASVKVSCKASGYAFSSSWMNWVRQAPGQRLEWMGRIYPGDGDTNYAQKFQGRVTITRDTSASTAYMELSSLRSEDTAVYYCARLLRNQPGESYAMDYWGQGTLVTVSS VL: DVVMTQTPLSLSVTPGQPASISCRSSQSLVHSNGYTYLHWYLQKPGQSPQLLIYKVSNRFSGVPDRFSGSGSGTDFTLKISRVEAEDVGVYYCSQSTRVPYTFGQGTKLEIK
7 | 93 | AL2p-h47 (antibody, IgG1, V domains shown, IgG1; Fab in monovalent BLI) VH: QVQLVQSGAEVKKPGASVKVSCKASGYAFSSSWMNWVRQAPGQGLEWMGRIYPGDGDTNYNGEFRVRVTMTRDTSTSTVYMELSSLRSEDTAVYYCARLLRNQPGESYAMDYWGQGTLVTVSS VL: DVVMTQTPLSLSVTPGQPASISCRSSQSLVHSNGYTYLHWYLQKPGQSPQLLIYKVSNRFSGVPDRFSGSGSGTDFTLKISRVEAEDVGVYYCSQSTRVPYTFGQGTKLEIK
8 | 84 | AL2p-h34 (antibody, IgG1, V domains shown, IgG1; Fab in monovalent BLI) VH: QVQLVQSGAEVKKPGSSVKVSCKASGYAFSSSWMNWVRQAPGQGLEWIGRIYPGDGDTNYAQKFQGRATITADTSTSTAYMELSSLRSEDTAVYFCARLLRNQPGESYAMDYWGQGTLVTVSS VL: DVVMTQTPLSLSVTPGQPASISCRSSQSLVHSNGYTYLHWYLQKPGQSPQLLIYKVSNRFSGVPDRFSGSGSGTDFTLKISRVEAEDLGVYFCSQSTRVPYTFGQGTKLEIK

The next lines start with the binder.

Row | Binder | Cell binding (FOB) [fold over background]
9 | AL2p-h50 (antibody, IgG1, V domains shown, IgG1; Fab in monovalent BLI) VH: QVQLVQSGAEVKKPGSSVKVSCKASGYAFSSSWMNWVRQAPGQGLEWMGRIYPGDGDTNYAQKFQGRVTITADESTSTAYMELSSLRSEDTAVYYCARLLRNQPGESYAMDYWGQGTLVTVSS VL: DVVMTQTPLSLSVTPGQPASISCRSSQSLVHSNGYTYLHWYLQKPGQSPQLLIYKVSNRFSGVPDRFSGSGSGTDFTLKISRVEAEDVGVYYCSQSTRVPYTFGQGTKLEIK | 78
10 | AL2p-h23 (antibody, IgG1, V domains shown, IgG1; Fab in monovalent BLI) VH: QVQLVQSGAEVKKPGASLKISCKASGYAFSSSWMNWVRQAPGQGLEWIGRIYPGDGDTNYAQKFQGRATLTADTSTSTAYMELSSLRSEDTAVYYCARLLRNQPGESYAMDYWGQGALVTVSS VL: DVVMTQTPLSLSVTPGQPASISCRSSQSLVHSNGYTYLHWYLQKPGQSPQLLIYKVSNRFSGVPDRFSGSGSGTDFTLKISRVEAEDLGVYFCSQSTRVPYTFGQGTKLEIK | 76
11 | AL2p-h30 (antibody, IgG1, V domains shown, IgG1; Fab in monovalent BLI) VH: QVQLVQSGAEVKKPGASVKVSCKASGYAFSSSWMNWVRQAPGQGLEWMGRIYPGDGDTNYAQKFQGRVTMTADTSTSTAYMELSSLRSEDTAVYYCARLLRNQPGESYAMDYWGQGTLVTVSS VL: DVVMTQTPLSLSVTPGQPASISCRSSQSLVHSNGYTYLHWYLQKPGQSPQLLIYKVSNRFSGVPDRFSGSGSGTDFTLKISRVEAEDLGVYFCSQSTRVPYTFGQGTKLEIK | 88
12 | AL2p-h21 (antibody, IgG1, V domains shown, IgG1; Fab in monovalent BLI) VH: QVQLVQSGAEVKKPGASVKVSCKASGYAFSSSWMNWVRQAPGQGLEWMGRIYPGDGDTNYAQKFQGRVTMTRDTSTSTVYMELSSLRSEDTAVYYCARLLRNQPGESYAMDYWGQGTLVTVSS VL: DVVMTQTPLSLSVTPGQPASISCRSSQSLVHSNGYTYLHWYLQKPGQSPQLLIYKVSNRFSGVPDRFSGSGSGTDFTLKISRVEAEDLGVYFCSQSTRVPYTFGQGTKLEIK | 76
13 | AL2p-h19 (antibody, IgG1, V domains shown, IgG1; Fab in monovalent BLI) VH: QVQLVQSGAEVKKPGSSVKVSCKASGYAFSSSWMNWVRQAPGQGLEWMGRIYPGDGDTNYAQKFQGRATITADTSTSTAYMELSSLRSEDTAVYYCARLLRNQPGESYAMDYWGQGTLVTVSS VL: DIVMTQTPLSLSVTPGQPASISCRSSQSLVHSNGYTYLHWYLQKPGQSPQLLIYKVSNRFSGVPDRFSGSGSGTDFTLKISRVEAEDVGVYYCSQSTRVPYTFGQGTKLEIK | 87
14 | AL2p-h22 (antibody, IgG1, V domains shown, IgG1; Fab in monovalent BLI) VH: QVQLVQSGAEVKKPGASVKVSCKASGYAFSSSWMNWVRQAPGQGLEWIGRIYPGDGDTNYAQKFQGRVTMTADTSTSTVYMELSSLRSEDTAVYYCARLLRNQPGESYAMDYWGQGTLVTVSS VL: DVVMTQTPLSLSVTPGQPASISCRSSQSLVHSNGYTYLHWYLQKPGQSPQLLIYKVSNRFSGVPDRFSGSGSGTDFTLKISRVEAEDLGVYFCSQSTRVPYTFGQGTKLEIK | 61
15 | AL2p-h26 (antibody, IgG1, V domains shown, IgG1; Fab in monovalent BLI) VH: QVQLVQSGAEVKKPGASVKVSCKASGYAFSSSWMNWVRQAPGQRLEWIGRIYPGDGDTNYAQKFQGRVTITADTSASTAYMELSSLRSEDTAVYYCARLLRNQPGESYAMDYWGQGTLVTVSS VL: DVVMTQTPLSLSVTPGQPASISCRSSQSLVHSNGYTYLHWYLQKPGQSPQLLIYKVSNRFSGVPDRFSGSGSGTDFTLKISRVEAEDLGVYFCSQSTRVPYTFGQGTKLEIK | 78
